In patent publication US20230012273A1 (Boehringer Ingelheim, published 2023):
Blank lines part the entries; values can stand above or below the binder they belong to.

Tests used:
[1] = target: ED-tagged human SIRPα V1 receptor on Jurkat signaling reporter cells (human, UniProt P78324 31-504); assay: cell-based or functional assay
[2] = target: ED-tagged human SIRPα V2 receptor on Jurkat signaling reporter cells (human, UniProt P78324 31-504); assay: cell-based or functional assay
[3] = target: T1, full-length human SIRPβ1 (NP_006056.2) on cells (human, UniProt O00241 30-398); assay: flow cytometry, U937 SIRPα-KO transfectants
T1 construct: also called β1 WT
Procedure: (§1) Antibody binding to cells expressing full-length human SIRPβ1 (NP_006056.2) and SIRPβL (NP_001129316.1) is evaluated by flow cytometry. SIRPβ1- or SIRPβL-expressing U937^{SIRPα KO} cells are blocked with donkey IgG and incubated on ice with increasing concentrations of antibodies for 60 minutes, washed and stained with AF647-conjugated donkey F(ab′)₂ anti-human IgG secondary reagent. Cells are washed, fixed, and analyzed by flow cytometry. Median fluorescent intensity is determined and used as a measure of antibody binding.

[4] = target: T2, full-length human SIRPγ (NP_061026.2) on cells (human, UniProt Q9P1W8 29-387); assay: flow cytometry, primary human CD3+ T cells (endogenous SIRPγ)
T2 construct: also called CHO-hSIRPγ; γ WT
Procedure: (§2) Antibody binding to primary human T cells expressing endogenous SIRPγ is evaluated by flow cytometry. Human peripheral blood mononuclear cells (PBMCs) are blocked with donkey IgG and incubated on ice with increasing concentrations of antibody for 60 minutes, washed and stained with AF647-conjugated donkey F(ab′)₂ anti-human IgG secondary reagent. […] Cells are washed, fixed, and analyzed by flow cytometry. Median fluorescent intensity of CD3+ gated population is determined and used as a measure of antibody binding.

[5] = target: T3, full-length human SIRPβL (NP_001129316.1) on cells (human, UniProt Q5TFQ8 30-398); assay: flow cytometry, U937 SIRPα-KO cells expressing full-length human SIRPβL
T3 construct: one molecule for U937 SIRPα-KO transfectants (NP_001129316.1) and Expi-CHO transfectants (Q5TFQ8); also called SIRPβ1v3; βL WT
Procedure: as §1

[6] = target: T4, full-length human SIRPαV1 (NP_542970.1) on cells (human, UniProt P78324 31-504); assay: flow cytometry, CD14+ monocytes V1V1
T4 construct: one molecule for CHO-K1 and Expi-CHO transfectants (NP_542970.1) and for endogenous V1 on U-937 cells and on CD14+ monocytes of V1/V1 donors; also called CHO-hSIRPαV1; αV1 WT
Procedure: as §2, with “human” for “human T”, “expressing SIRPα” for “expressing endogenous SIRPγ”, “(PBMCs) from donors genotyped as homozygous for the SIRPα V1 allele, V2 allele, or heterozygous for both alleles” for “(PBMCs)”, “of the CD14+” for “of CD3+ gated”, “population was” for “population is”

[7] = target: T5, full-length human SIRPαV2 (CAA71403.1) on cells (human, UniProt P78324 31-504); assay: flow cytometry, CD14+ monocytes V2V2
T5 construct: one molecule for CHO-K1 and Expi-CHO transfectants (CAA71403.1) and for endogenous V2 on THP-1 cells and on CD14+ monocytes of V2/V2 donors; also called CHO-hSIRPαV2; αV2 WT
Procedure: as §2, with “human” for “human T”, “expressing SIRPα” for “expressing endogenous SIRPγ”, “(PBMCs) from donors genotyped as homozygous for the SIRPα V1 allele, V2 allele, or heterozygous for both alleles” for “(PBMCs)”, “of the CD14+” for “of CD3+ gated”, “population was” for “population is”

[8] = target: T3, full-length human SIRPβL …; assay: flow cytometry, U937 SIRPα-KO transfectants
Procedure: as §1

[9] = target: T5, full-length human SIRPαV2 (CAA71403.1) …; assay: flow cytometry, competition with CD47 tetramer, monocytes V2V2
Procedure: Cells are washed, fixed, and analyzed by flow cytometry. Median fluorescent intensity of CD14+gated population is determined and used as a measure of CD47 binding.

[10] = target: T1, full-length human SIRPβ1 (NP_006056.2) …; assay: flow cytometry, Expi-CHO cells
Procedure: (§3) These cells are blocked with donkey IgG and incubated on ice with increasing concentrations of antibodies for 60 minutes, washed and stained with AF647-conjugated donkey F(ab′)₂ anti-human IgG antibodies. Stained cells are washed, fixed, and analyzed by flow cytometry. Median fluorescent intensity is determined and used as a measure of antibody binding.

[11] = target: T6, full-length human SIRPβL H→D on Expi-CHO cells (human, UniProt Q5TFQ8 30-398); assay: flow cytometry, Expi-CHO cells
T6 construct: the entry already carries the change (PDHV to PDDV); also called βL WT H→D
Procedure: as §3, with “Expi-CHO parental cells are transduced with lentiviruses containing either full-length wild-type human SIRPβL (Q5TFQ8) or full-length human SIRPβL with a single amino acid point mutation (Table 62) and sorted to achieve matching expression levels. These” for “These”
(§4) A single amino acid substitution (H→D) introduced within the loop region maintained, strengthened, or facilitated antibody binding to these cells (FIG. 34B, Table 63).

[12] = target: T7, full-length human SIRPγ N→D on Expi-CHO cells (human, UniProt Q9P1W8 29-387); assay: flow cytometry, Expi-CHO cells
T7 construct: the entry already carries the change (PENV to PEDV)
Procedure: as §3, with “Expi-CHO parental cells are transduced with lentiviruses containing either full-length wild-type human SIRPγ ([…]) or full-length human SIRPγ with amino acid point mutations (Table 64) and sorted to achieve matching expression levels. These” for “These”

[13] = target: T8, full-length human SIRPγ EN→DD on Expi-CHO cells (human, UniProt Q9P1W8 29-387); assay: flow cytometry, Expi-CHO cells
T8 construct: the entry already carries the change (PENV to PDDV)
T8 chain: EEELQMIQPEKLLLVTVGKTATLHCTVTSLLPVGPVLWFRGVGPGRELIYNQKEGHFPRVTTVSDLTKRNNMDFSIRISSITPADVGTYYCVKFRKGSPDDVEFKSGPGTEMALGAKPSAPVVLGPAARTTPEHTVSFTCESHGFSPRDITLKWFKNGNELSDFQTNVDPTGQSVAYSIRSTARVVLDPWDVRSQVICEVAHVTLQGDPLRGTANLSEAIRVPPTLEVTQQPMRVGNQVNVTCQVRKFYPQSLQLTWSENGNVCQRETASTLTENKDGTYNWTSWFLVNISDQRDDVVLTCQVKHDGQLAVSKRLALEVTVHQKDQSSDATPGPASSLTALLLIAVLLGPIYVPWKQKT
Procedure: as §3, with “Expi-CHO parental cells are transduced with lentiviruses containing either full-length wild-type human SIRPγ ([…]) or full-length human SIRPγ with amino acid point mutations (Table 64) and sorted to achieve matching expression levels. These” for “These”

[14] = target: T9, full-length human SIRPγ E→D on Expi-CHO cells (human, UniProt Q9P1W8 29-387); assay: flow cytometry, Expi-CHO cells expressing full-length human SIRPγ E→D
T9 construct: the entry already carries the change (PENV to PDNV)
Procedure: as §3, with “Expi-CHO parental cells are transduced with lentiviruses containing either full-length wild-type human SIRPγ ([…]) or full-length human SIRPγ with amino acid point mutations (Table 64) and sorted to achieve matching expression levels. These” for “These”

[15] = target: T10, full-length human SIRPβ1 D→H on Expi-CHO cells (human, UniProt O00241 30-398); assay: flow cytometry, Expi-CHO cells expressing full-length human SIRPβ1 D→H
T10 construct: the entry already carries the change (PDDV to PDHV)
Procedure: as §3

[16] = target: T2, full-length human SIRPγ (NP_061026.2) …; assay: flow cytometry, Expi-CHO cells expressing full-length wild-type human SIRPγ
Procedure: as §3, with “[…] These” for “These”

[17] = target: T3, full-length human SIRPβL …; assay: flow cytometry, Expi-CHO cells expressing full-length wild-type human SIRPβL
Procedure: as §3, with “Expi-CHO parental cells are transduced with lentiviruses containing either full-length wild-type human SIRPβL (Q5TFQ8) or full-length human SIRPβL with a single amino acid point mutation (Table 62) and sorted to achieve matching expression levels. These” for “These”
as §4

Blockade of Cellular CD47-Mediated SIRPα Signaling; IC50 [1]: 0.04 nM | Blockade of Cellular CD47-Mediated SIRPα Signaling; IC50 [2]: 0.03 nM | EC50 [3]: 0.2 nM | binding result [4]: no binding (tested: about 67 nM) | binding result [5]: no binding (tested: about 200 nM)
B1: Antibody F (antibody, human IgG4 S228P, kappa)
heavy: not shown
light: DIQMTQSPSSLSASVGDRVTITCRASQDINNYLAWFQQKPGKAPKSLIYTASSLHSGVPSKFSGSGSGTDFTLTISSLQPEDFATYYCQQYVSYPYTFGQGTKLEIKRTVAAPSVFIFPPSDEQLKSGTASVVCLLNNFYPREAKVQWKVDNALQSGNSQESVTEQDSKDSTYSLSSTLTLSKADYEKHKVYACEVTHQGLSSPVTKSFNRGEC

Blockade of Cellular CD47-Mediated SIRPα Signaling; IC50 [1]: 0.04 nM | Blockade of Cellular CD47-Mediated SIRPα Signaling; IC50 [2]: 0.03 nM | EC50 [6]: 0.3 nM | EC50 [7]: 0.4 nM | EC50 [8]: 0.3 nM | IC50 [9]: 0.22 nM | binding result [4]: no binding (tested: about 67 nM)
B2: Antibody G (antibody, human IgG4 S228P, kappa)
heavy: not shown
light: DIVMTQSPLSLPVTPGEPASISCKSSQSLLYSNGYNYLDWYLQRPGQSPQLLIYLGSNRASGVPDRFSGSGSGTDFTLKISRVEAEDVGVFYCMQALQTPLTFGGGTKVEIKRTVAAPSVFIFPPSDEQLKSGTASVVCLLNNFYPREAKVQWKVDNALQSGNSQESVTEQDSKDSTYSLSSTLTLSKADYEKHKVYACEVTHQGLSSPVTKSFNRGEC

Blockade of Cellular CD47-Mediated SIRPα Signaling; IC50 [1]: 0.04 nM | Blockade of Cellular CD47-Mediated SIRPα Signaling; IC50 [2]: 0.05 nM | EC50 [10]: 1.5 nM | EC50 [11]: 0.5 nM | EC50 [12]: 0.5 nM | EC50 [13]: 0.7 nM | EC50 [3]: 0.2 nM | binding result [14]: no binding (tested: about 67 nM) | binding result [15]: no binding (tested: about 67 nM) | binding result [16]: no binding (tested: about 67 nM) | binding result [17]: no binding (tested: about 67 nM)
B3: Antibody A4 (antibody, human IgG1, kappa, L234A L235A, V domains shown)
VH: EVQLVESGGGLVQPGGSLRLSCAASGFTLSSYDMHWVRQAPGKGLEWVSAIGTAGDTYYTGSVKGRFTISRENAKNSLYLQMNSLRAADTAVYYCVRGGVWDDAFDIWGQGTMVTVSS
VL: DIQMTQSPSSLSASVGDRVTITCRASQGINNYAAWFQQKPGKAPKSLIYTASSLHSGVPSKFSGSGSGTDFTLTISSLQPEDFATYYCQQYVSYPYTFGQGTKLEIKR
